This note sets out measurements from paper PMC7659714 (The Journal of Cell Biology, 2020).

Assay [1] deals with T1, GluA1 expressed in HEK cells (mTurquoise2-GluA1) (mouse, UniProt P23818 19-907). Briefly: co-IP.
Assay [2] addresses T1, GluA1 expressed in HEK cells …. The assay can be described thus: FRET or BRET. For orientation: BRET reads energy transfer from a luciferase to a nearby fluorophore.

T1 sequence (P23818 19-907): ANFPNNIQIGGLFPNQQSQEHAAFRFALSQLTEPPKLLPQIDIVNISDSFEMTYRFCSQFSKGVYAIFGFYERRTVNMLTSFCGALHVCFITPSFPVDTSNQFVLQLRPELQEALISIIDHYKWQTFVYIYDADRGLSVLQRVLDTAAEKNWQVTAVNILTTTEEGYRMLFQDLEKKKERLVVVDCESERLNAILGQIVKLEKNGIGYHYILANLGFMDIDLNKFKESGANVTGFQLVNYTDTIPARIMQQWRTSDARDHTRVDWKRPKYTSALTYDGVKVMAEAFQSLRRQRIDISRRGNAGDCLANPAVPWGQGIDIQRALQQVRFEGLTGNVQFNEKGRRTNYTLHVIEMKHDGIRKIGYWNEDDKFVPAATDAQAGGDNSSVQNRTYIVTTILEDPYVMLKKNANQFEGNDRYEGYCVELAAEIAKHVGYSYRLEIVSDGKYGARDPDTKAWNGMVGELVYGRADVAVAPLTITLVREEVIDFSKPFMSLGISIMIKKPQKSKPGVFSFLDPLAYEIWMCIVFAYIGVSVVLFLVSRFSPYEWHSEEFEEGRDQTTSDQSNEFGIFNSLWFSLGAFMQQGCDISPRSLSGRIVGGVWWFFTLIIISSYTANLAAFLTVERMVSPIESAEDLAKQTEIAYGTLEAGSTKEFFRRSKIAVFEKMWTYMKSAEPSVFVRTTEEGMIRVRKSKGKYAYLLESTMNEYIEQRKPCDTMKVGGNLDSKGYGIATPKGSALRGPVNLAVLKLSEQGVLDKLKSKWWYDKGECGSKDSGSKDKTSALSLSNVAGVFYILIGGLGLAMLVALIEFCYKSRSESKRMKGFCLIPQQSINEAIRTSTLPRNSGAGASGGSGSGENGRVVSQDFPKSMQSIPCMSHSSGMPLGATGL

B1: CPT1CM589S (malonyl-CoA-insensitive CPT1C) expressed in HEK cells for co-immunoprecipitation (natural protein, UniProt Q8BGD5 1-798, looked up)
chain: MAEAHQASSLLSSLSSDGAEVELSSPVWQEIYLCALRSWKRHLWRVWNDFLAGVVPATPLSWLFLFSTIQLACLLQLDPSLGLMEKIKELLPDWGGQHHQLQGFLSAAVFASCLWGALIFTLHVALRLLLSHHGWLLEPHGAMSSPTKTWLALVRIFSGRHPRLFSFQRALPRQPVPSAQETVRKYLESVRPVLGDDAFDRATALANDFLRLHAPRLQLYLQLKSWCTSNYVSDWWEEFVYLRSRGSLINSTYYMMDFLYVTPTPLQAARAGNAVHTLLLYRHLLNRQEISPTLLMGMRPLCSAQYERMFNTTRIPGVEKDHLRHLQDSRHVAVFHRGRFFRVGTHSPNGLLSPRALEQQFQDILDDPSPACPLEEHLAALTAAPRSMWAQVRESVKTHAATALEAVEGAAFFVSLDSEPAGLTREDPAASLDAYAHALLAGRGHDRWFDKSFTLIVFSNGKLGLSVEHSWADCPVSGHLWEFTLATECFQLGYATDGHCKGHPDPTLPQPQRLQWDLPEQIQPSISLALRGAKTLSGNIDCHVFPFSHFGKSFIKCCHVSSDSFIQLVLQLAHFRDRGQFCLTYESASTRLFLEGRTETVRSCTREACQFVRAMDNKETDQHCLALFRVAVDKHQALLKAAMSGQGIDRHLFALYIMSRLLHMQSPFLTQVQSQQWLLSTSQVPVQQTHLIDVHNYPDYVSSGGGFGPAHDHGYGISYIFMGENAITFHISSKKSSTETDSHRLGQHIENALLDVASLFRVGQHFKRQFRGENSDYRYNFLSCKTVDPNTPTSSTNL
In the case of B1, the “coimmunoprecipitated CPT1C versus immunoprecipitated GluA1, relative to WT CPT1C” value in assay [1] was 0.85 ratio to GluA1 + WT CPT1C (1.00).

B2: YFP-CPT1CM589S for FRET (natural protein, UniProt Q8BGD5 1-798, looked up)
chain: B1 chain
Take B2: in assay [2], the “percentage of FRET efficiency” value amounted to 9.51%.

B3: YFP-CPT1C, wild type, for FRET (CPT1C-SYFP2) (natural protein, human, UniProt Q8TCG5 1-803, looked up)
chain: MAEAHQAVGFRPSLTSDGAEVELSAPVLQEIYLSGLRSWKRHLSRFWNDFLTGVFPASPLSWLFLFSAIQLAWFLQLDPSLGLMEKIKELLPDWGGQHHGLRGVLAAALFASCLWGALIFTLHVALRLLLSYHGWLLEPHGAMSSPTKTWLALVRIFSGRHPMLFSYQRSLPRQPVPSVQDTVRKYLESVRPILSDEDFDWTAVLAQEFLRLQASLLQWYLRLKSWWASNYVSDWWEEFVYLRSRNPLMVNSNYYMMDFLYVTPTPLQAARAGNAVHALLLYRHRLNRQEIPPTLLMGMRPLCSAQYEKIFNTTRIPGVQKDYIRHLHDSQHVAVFHRGRFFRMGTHSRNSLLSPRALEQQFQRILDDPSPACPHEEHLAALTAAPRGTWAQVRTSLKTQAAEALEAVEGAAFFVSLDAEPAGLTREDPAASLDAYAHALLAGRGHDRWFDKSFTLIVFSNGKLGLSVEHSWADCPISGHMWEFTLATECFQLGYSTDGHCKGHPDPTLPQPQRLQWDLPDQIHSSISLALRGAKILSENVDCHVVPFSLFGKSFIRRCHLSSDSFIQIALQLAHFRDRGQFCLTYESAMTRLFLEGRTETVRSCTREACNFVRAMEDKEKTDPQCLALFRVAVDKHQALLKAAMSGQGVDRHLFALYIVSRFLHLQSPFLTQVHSEQWQLSTSQIPVQQMHLFDVHNYPDYVSSGGGFGPADDHGYGVSYIFMGDGMITFHISSKKSSTKTDSHRLGQHIEDALLDVASLFQAGQHFKRRFRGSGKENSRHRCGFLSRQTGASKASMTSTDF
Consider B3, for which the “percentage of FRET efficiency” value in assay [2] was 8.7%.

B4: CPT1CΔCterm-FLAG (truncated CPT1C, last 39 aa replaced by FLAG) expressed in HEK cells for co-immunoprecipitation (domain or fragment, UniProt Q8BGD5 1-759, looked up)
chain: MAEAHQASSLLSSLSSDGAEVELSSPVWQEIYLCALRSWKRHLWRVWNDFLAGVVPATPLSWLFLFSTIQLACLLQLDPSLGLMEKIKELLPDWGGQHHQLQGFLSAAVFASCLWGALIFTLHVALRLLLSHHGWLLEPHGAMSSPTKTWLALVRIFSGRHPRLFSFQRALPRQPVPSAQETVRKYLESVRPVLGDDAFDRATALANDFLRLHAPRLQLYLQLKSWCTSNYVSDWWEEFVYLRSRGSLINSTYYMMDFLYVTPTPLQAARAGNAVHTLLLYRHLLNRQEISPTLLMGMRPLCSAQYERMFNTTRIPGVEKDHLRHLQDSRHVAVFHRGRFFRVGTHSPNGLLSPRALEQQFQDILDDPSPACPLEEHLAALTAAPRSMWAQVRESVKTHAATALEAVEGAAFFVSLDSEPAGLTREDPAASLDAYAHALLAGRGHDRWFDKSFTLIVFSNGKLGLSVEHSWADCPVSGHLWEFTLATECFQLGYATDGHCKGHPDPTLPQPQRLQWDLPEQIQPSISLALRGAKTLSGNIDCHVFPFSHFGKSFIKCCHVSSDSFIQLVLQLAHFRDRGQFCLTYESAMTRLFLEGRTETVRSCTREACQFVRAMDNKETDQHCLALFRVAVDKHQALLKAAMSGQGIDRHLFALYIMSRLLHMQSPFLTQVQSQQWLLSTSQVPVQQTHLIDVHNYPDYVSSGGGFGPAHDHGYGISYIFMGENAITFHISSKKSSTETDSHRLGQHIENALLDVASL
Turning to B4, in assay [1], the “coimmunoprecipitated CPT1C versus immunoprecipitated GluA1, relative to WT CPT1C” value is 0.12 ratio to GluA1 + WT CPT1C (1.00).
